Measured values taken from patent EP4541444A1.
Positions count from the first letter of the chain named.

What was measured:
trastuzumab-GFP = assay: SPR (Biacore), fusion on CM5 chip, 2 µM Fc block, then trastuzumab-eGFP 1 µM
[1] = biological target: epidermal growth factor receptor (Example 4A) (UniProt P00533); assay: SPR (Biacore), fusion on CM5 chip, EGFR 200 nM
[2] = biological target: EGFR (SinoBiological, 10001-H08H) (UniProt P00533); assay: SPR (Biacore), fusion on CM5 chip, EGFR 200 nM
[3] = biological target: AAV9 viral particles (adeno-associated virus serotype 9); assay: SPR (Biacore), ligand amine coupled to CM5 chip, AAV9 2E12 vp/ml
[4] = biological target: AAV9 viral particles (adeno-associated virus serotype 9); assay: SPR (Biacore), biotinylated ligand on SA chip, AAV9 2E12 vp/ml

B1: 4B-5 (VHH)
VHH: QVQLQESGGGLVQPGGSLRLSCAASGRTSINPYMAWFRQAPGKQREFVAAISSGGVYTYYTDSVKGRFTISRDNAKTTVYLQMNSLKPEDTAVYYCAADFRRGGNWNVDPFRYDYQYWGQGTQVTVSS
- Binding capacity trastuzumab-eGFP (1 µM) (trastuzumab-GFP): 4300 RU

B2: 4B-6 (VHH)
VHH: B1 VHH with E6Q, L11S, P14A, A23T, A24I, A40R, Q44E, T61A, T77N, Q116D
- Binding capacity trastuzumab-eGFP (1 µM) (trastuzumab-GFP): 3910 RU

B3: 4A-5 (VHH)
VHH: QVQLQQSGGGSVQAGGSLRLSCTISGRTFSSYAMGWFRQRPGKEREFVAAINWSSGSTYYADSVKGRFTISRDNAKNTVYLQMNSLKPEDTAVYYCAAGYQINSGNYNFKDYEYDYWGQGTQVTVSS
- Binding capacity EGFR (200 nM) [1]: 2350 RU

B4: 4B-4 (VHH)
VHH: B3 VHH
- Binding capacity EGFR (200 nM) [2]: 1900 RU

B5: 2A-1 (VHH)
VHH: QVQLQQSGGGSVQAGGSLRLSCTISGRTLSDYTMGWFRQRPGKEREFVAAISWSGAYTKYADSVKGRFTISRDNAKNTVYLQMNSLKPEDTAVYYCAAGPTGLLSKKATPADYDYWGQGTQVTVSS
- AAV9 capacity (2E12 vp/ml) [3]: 11300 RU

B6: 2B-1 (VHH)
chain: QVQLQQSGGGSVQAGGSLRLSCTISGRTLSDYTMGWFRQRPGKEREFVAAISWSGAYTKYADSVKGRFTISRDNAKNTVYLQMNSLKPEDTAVYYCAAGPTGLLSKKATPADYDYWGQGTQVTVSSQASAEAAAKEAAAKAGQVQLQQSGGGSVQAGGSLRLSCTISGRTLSDYTMGWFRQRPGKEREFVAAISWSGAYTKYADSVKGRFTISRDNAKNTVYLQMNSLKPEDTAVYYCAAGPTGLLSKKATPADYDYWGQGTQVTVSSQASAEAAAKEAAAKAGQVQLQQSGGGSVQAGGSLRLSCTISGRTLSDYTMGWFRQRPGKEREFVAAISWSGAYTKYADSVKGRFTISRDNAKNTVYLQMNSLKPEDTAVYYCAAGPTGLLSKKATPADYDYWGQGTQVTVSSQASHHHHHHC
- AAV9 capacity (2E12 vp/ml) [4]: 13400 RU
